Data from patent US8945864B2, “Method of determining 1,5-anhydroglucitol, and reagent composition for determining 1,5-anhydroglucitol” (Ikeda Food Research Co., Ltd., priority 2006, dated 2015).
Like-named read-outs stand apart in the source and are kept apart here.

Key:
[1] = biological target: sorbose dehydrogenase (Sinorhizobium meliloti, UniProt Q92YU0); assay: Inhibitor test: additive in the reaction solution for the activity measurement; assay type: biochemical, Sinorhizobium sp. 97507
[2] = substrate: OCC1(O)OC[C@H](O)[C@@H](O)[C@@H]1O; assay: Km value of sorbose dehydrogenase; assay type: biochemical, Sinorhizobium sp. 97507; conditions: other: Km of the sorbose dehydrogenase to the substrate; pH 7.0; 37.0 °C
Protocol: (§1) One mL of a 0.1 M potassium phosphate buffer, pH 7.0, 1.0 mL of 1.0 M L-sorbose, 0.14 mL of 3 mM 2,6-dichlorophenol indophenol (DCIP), 0.2 mL of 3 mM 1-methoxy-5-methylphenazinium methyl sulfate, and 0.61 mL of water were added to a 3 mL quartz cell, and the quartz cell was set to a spectrophotometer equipped with a thermostat cell holder, and incubated at 37° C. for ten minutes. Then, 0.05 mL of the enzyme solution was added to the quartz cell, and changes in absorbance of DCIP at 600 nm (AABS600/min) was measured at 37° C. As the molar extinction coefficient of DCIP at pH 7.0 is known as 16.3 mM^−1, and the amount of enzyme that reduced 1 μmol of DCIP for one minute is defined as one unit. Following the definition, the concentration of enzyme activity was calculated based on the following equation. enzyme activity (units/mL)=(−ΔABS600/min×3.0×dilution rate)/(16.3×1.0×0.05)
(§2) Measurement conditions in the above “method of measuring enzyme activity” were suitably modified as necessary, and the optimal pH, pH stability, optimal temperature, temperature stability, substrate specificity, Km value, total molecular weight, subunit molecular weight, inhibitor, and product of the enzyme reaction were identified. The properties of the enzyme were evaluated in accordance with the following tests.
[…]. […]

[3] = substrate: OC[C@H]1OC[C@H](O)[C@@H](O)[C@@H]1O; assay: Km value of sorbose dehydrogenase; assay type: biochemical, Sinorhizobium sp. 97507; conditions: other: Km of the sorbose dehydrogenase to the substrate; pH 7.0; 37.0 °C
Protocol: as §1, §2
[…]. […]

[4] = Optimal pH of sorbose dehydrogenase; assay type: biochemical; conditions: buffers pH 3.71-9.11, 33.3 mM; FIG. 3
[5] = Optimal temperature of sorbose dehydrogenase; assay type: biochemical; conditions: 50 mM potassium phosphate buffer, pH 7.0; 35° C. to 70° C.; FIG. 5
[6] = Temperature stability of sorbose dehydrogenase; assay type: physicochemical; conditions: pH 7.0, FIG. 6

Question: For `[Cl][Sn][Cl]` [SnCl2], which “Relative activity (%)” value ([1]; additive final concentration 0.5 mM, control without additive = 100%) is on record?
Answer: The value was 86%.

Question: For `OO` [H2O2], which “Relative activity (%)” value [1] is on record?
Answer: The value was 98%.

Question: Which “Relative activity (%)” value ([1]; additive final concentration 1.0 mM, control without additive = 100%) does the source give for `O=C(O)CC(O)C(=O)O` (racemic) [DL-malic acid] here?
Answer: The value was 85%.

Question: For `c1cnc2c(c1)ccc1cccnc12` [1,10-phenanthroline], which activity at 1000 µM ([1]; additive final concentration 1.0 mM, control without additive = 100%, read-out: Relative activity (%)) is on record?
Answer: Its activity at 1000 µM is 77%.

B1: sorbose dehydrogenase (Sinorhizobium meliloti 1021) (protein)
chain: MMEGFDYVIVGGGSSGCVLAARLSENPSVRVCLIEAGGRDRHPLIHMPVGFAKLTAGPMTWGLTTAPQKHANNREIPYAQARVLGGGSSINAEVYTRGHPRDYDRWVEEGADGWSFQEVKPYFLRSEGNTILSGEWHGTDGPLGVSNLPDPQPMTRAFVQSCQELGIPYNPDFNGPVQEGAGVYQTTIRNSRRCSAAVGYLRPALARKNLMLITGALVLRIVFQGRRAVGVEYSTGGAAKIARAESEVLVTSGAIGTPKLMMLSGVGPAASLRSHGIDVVQDMAGVGQNLHDHFGVDIVAELKGHDSLDKYNKFHWMLLAGIEYALFKSGPVASNVVEGGAFWYGDRASPYPDLQFHFLAGAGAEAGVPSVPKGSSGVTLNSYTVRPKSRGSVTLRSADPRALPIVDPNFLDDPDDLRISVEGIRISREIFGQPSLQKYIKTIRFPDESVRTQADFEAYARQYGRTSYHPTCTCKMGRDDMSVVDPQLRVHGLDGIRICDSSVMPSLVGSNTNAATIMIGEKAADLIRGNI
Question: With B1 as the molecule, how does the Km [2] read?
Answer: The Km was 65.6 mM.

Question: What about the Km [3] of the same molecule?
Answer: Its Km is 82.5 mM.

B2: sorbose dehydrogenase: recombinant sorbose dehydrogenase from Sinorhizobium sp. 97507, amino acid sequence SEQ ID NO: 2, produced in E. coli JM109/pUCNNT2_AGD1 (protein)
chain: B1 chain
modifications: Sinorhizobium sp. 97507
Question: With B2 as the molecule, how does the “Optimal pH” value [4] read?
Answer: Its value is 8.0.

Question: What about the Optimal temperature [5] of the same molecule?
Answer: Its Optimal temperature is “around 60 °C”.

Question: What about the “Residual ratio of enzyme activity” value ([6]; 45° C. for ten minutes) of the same molecule?
Answer: Its value is 77%.

Question: What about the “Temperature at which the enzyme is stable” value ([6]; ten minutes) of the same molecule?
Answer: Its value is ≤ 45 °C.
